Experimental data taken from the DeepSol protein solubility set.

Assay: soluble on expression in E. coli; label from the status in PepcDB or PDB records

Sequence | soluble on expression in E. coli
MSLDKAPERVVSVGYTDDQTVLAFGIKPVGMVDQYPNPAGQSPDINTQWPWVKDKWGDTKPEVVMKNGDTGPNFEKIAALRPDLIVAVYSEIDQAAYDKLSKIAPTVGRTKGEKEPFSAPWQDNALHIAKALGKAEEGEKMVADIQGKLDAAKQAHPEFADKTAVVLSWYKDSVAPFTSTDVRGRLVTGIGFKYETEIDKVAGGDFYTTLSPERVDLVDVDRVFVINDKADQDALKKFELFTNLDAVKNGKVSYLLDSEGPAVGAAISQGTLLSMPYAVDELVKSAGEGHHHHHH | soluble
MSLDLETDVVAGTAERKGSAEGKVEIEDRHVTKVSLPVQVVTGDENTLCYYTAIFDGHDGSSCAQYATVNLHKNLISLYRQIYSTVQRRKFLSVGLEALVKATAKSFFMTDHNFLDSARKSGVEQDAGSTACVVLLFGPDDDGQLKLLTAHAGDTRAVLCRDDRALRLTEDHRPNHKLEQRRVQQNGGEVMNIEGVWRVIFVDRKTNRLFGLATSRALGDRRMKVPKKLVTCQPTLHVYAINFETDLFLVLASDGIWDVLSDEEVVAIVSEHLDKPPQEAARFVIDEAVKRGSEDDKTCTVLFFKWRRDRFPSEGHHHHHH | soluble
MSLDLSLNNLYSISTVELIQAFANTPASVTSLNLSGNSLGFKNSDELVQILAAIPANVTSLNLSGNFLSYKSSDELVKTLAAIPFTITVLDLGWNDFSSKSSSEFKQAFSNLPASITSLNLRGNDLGIKSSDELIQILAAIPANVNSLNLRGNNLASKNCAELAKFLASIPASVTSLDLSANLLGLKLEHHHHHH | not soluble
MSLDMNKPEGFDCPGCAWPDPKHSASFDICENGAKAIAWEVTDKQVNASFFAENTVQSLLTWGDHELEAAGRLTQPLKYDAVSDCYKPLSWQQAFDEIGARLQSYSDPNQVEFYTSGRTSNEAAFLYQLFAREYGSNNFPDCSNMCHEPTSVGLAASIGVGKGTVLLEDFEKCDLVICIGHNPGTNHPRMLTSLRALVKRGAKMIAINPLQERGLERFTAPQNPFEMLTNSETQLASAYYNVRIGGDMALLKGMMRLLIERDDAASAAGRPSLLDDEFIQTHTVGFDELRRDVLNSEWKDIERISGLSQTQIAELADAYAAAERTIICYGMGITQHEHGTQNVQQLVNLLLMKGNIGKPGAGICPLRGHSNVQGDRTVGITEKPSAEFLARLGERYGFTPPHAPGHAAIASMQAICTGQARALICMGGNFALAMPDREASAVPLTQLDLAVHVATKLNRSHLLTARHSYILPVLGRSEIDMQKNGAQAVTVEDSMSMIHASRGVLKPAGVMLKSECAVVAGIAQAALPQSVVAWEYLVEDYDRIRNDIEAVLPEFADYNQRIRHPGGFHLINAAAERRWMTPSGKANFITSKGLLEDPSSAFNSKLVMATVRSHDQYNTTIYGMDDRYRGVFGQRDVVFMSAKQAKICRVKNGERVNLIALTPDGKRSSRRMDRLKVVIYPMADRSLVTYFPESNHMLTLDNHDPLSGIPGYKSIPVELEPSNEGHHHHHH | soluble
MSLDNDTVKVGDLVQINLPGEASLNQGFQVDRRGRINLPEIGPVFVAGYNEQQLQDVIIETLKTVYRDVNNARVFIKQQQLLVSVQGYVVKPGEYTLPAGSNIQMFVYEAGGLRAGAQLDKMIVKRGDQNIEFDYKRFLDTGDNEGHHHHHH | soluble
MSLDNIERTLGQLFEGRDFEKEYQGLKQQVLHYQPIQDFFKEHKEEVTEQLVNQNLSNLYEFMTQHKKFTEQEETLMPGYAPKLVLNGEFITVTYYPTKEKIEEDKRRAVERRIRSLYMPKQVVDANLADFYTDEESRQLALVEAYQFLNNYPPKSGERVKGLFIHGSFGTGKSYLLGALAKELALKGISSTLVYLPEFMREVKQSISDNTVGEKIQFAKETEVLMLDDIGAESMTAWTRDEVLGAILQFRMQEELPTFFSSNYNMDQLENHLMFAQNGTEEKLKARRIMERVRYLSKEVNLEGEGHHHHHH | soluble
MSLDQAAVCLTICRINQLLSPSLLLKWWKADPSMSLTSPVLQTVTRDQIKAAALKNEIEQFYPKLPRVLAAYREQGINTIPISSKQYPFWLKSIYDPPAVLFAKGDMTLLSKGRKIGIVGTRNPTAYGKQVVNHLTKEICRKGWVIVSGLASGIDGMSHAASIKAKGRTIGVIAGGFQHIYPRENLQLADHMAKHHILLSEHPPETKPQKWHFPMRNRIISGLSEGVIVVQGKEKSGSLITAYQALEQGREVFAVPGSLFDPYAGGPIKLIQQGAKAIWSAEDIFEELPERNVQYTEPFEGHHHHHH | not soluble
MSLDQIKIAYIGGGSQGWARSLMSDLSIDERMSGTVALYDLDFEAAQKNEVIGNHSGNGRWRYEAVSTLKKALSAADIVIISILPGSLDDMEVDVHLPERCGIYQSVGDTVGPGGIIRGLRAVPIFAEIARAIRDYAPESWVINYTNPMSVCTRVLYKVFPGIKAIGCCHEVFGTQKLLAEMVTERLGIEVPRREDIRVNVLGINHFTWITKASYRHIDLLPIFREFSAHYGESGYELEGECWRDSVFCSAHRVAFDLFETYGAIPAAGDRHLAEFLPGPYLKQPEVWKFHLTPISFRKQDRAEKRQETERLIVQQRGVAEKASGEEGVNIIAALLGLGELVTNVNMPNQGQVLNLPIQAIVETNAFITRNRVQPILSGALPKGVEMLAARHISNQEAVADAGLTKDTGLAFQAFLNDPLVQIDRSDAEQLFNDMLQCIMQSEGHHHHHH | soluble
MSLDRVEEQRITIPDFQKLVEAQTGSEISMDDFYPASSVRPISDFVAAIEGEPQVTFTCHQHCGTATYIFLEDDKIIPITRFIDVDRFFEVLEKGKDEIEEGGIAAKARVIARSAIELPKTLDKSEAPESVDIKRILTSIFKERSYTALGEFHYNTLLISCMHFMDPWNFDIDRVRRCVIHYALPDGRIVPFCTMNSIHRADVERHFAKPLNESKEGHHHHHH | not soluble
MSLDSFLDIQRKKADADSKFIDCNGFRVHYKRYGSGKPPFIVLLHGSFLSIRSWRDVAVPLAENATVLAFDRPAFGLTSRPVPSRSNAARYSPEAQSDLVVALMDKLGMDRAVIVGNSTGGTLALLTALRHPRRVQGLVLVGAMIYSGYANSEVPAVMKPFMKAMSPVFSRLMKVIITKLYDKNIRGFWHVKSRLSDETLAAFRNDFMVGDWSRGFWELFLETHRLYFNRRVSSAWAPSLVVTGEHDLTVKTEESFRLARELPRAELLVIPDCAHLPQEEQPAAFVAGVKKFVEKLVEGHHHHHH | soluble
MSLDTDREQILAEFLSIDRTKVRRIEHHRCHAAYSYYASKYRNKPILALTVDGWGDGKDATIGIFDEKGKYSRVYESDQCAIGRIYRYMTLMLGMKPNEHEFKVMGLAPYGKETHAKKALDILRNTLYVDGEEFKWKEKPKDSYFWFKERFEGVRFDNIAFALQKWTEELLVEWVKNAINKYKIHDIVISGGVAMNIKAMGKIADLPEVKSLFIGGSASDESMAISSGICLAEDLTKESSREWNSNTIESLTRLYLGPSASLKEEERVVDGLDKKKFEIIENPENKRIAEVLFEGKILARAAGRMEFGQRALGNRSILADPIHLKIKEKINSAIKSRDFWMPFAPVVMDTFVERYLLNPKSLESPHMTLSFDTTEEGYDAMSAACHPADRTARAQILKEHDNPELYSLLKAFQHLTGRGALLNTSFNLHGFPIVNSPSEAVDVLVNSGLDGLILNYFLILKKEGHHHHHH | not soluble
MSLDTNNALARFFDSSGYNANVSNPSAYQGQSANYYTGGSLFVRTPIVDAQLVSVTVPSISAGCSGIDMFMGGFSHVSSDQLVKVGKAIIHNAPPFIVNLALQTWAPQLKQNLDNLQAIADKYLNQSVNSCEAAQAAIGGLAAFAAPATKKHVCATLGTQNNAFSDWVQAQHECGAGGKAAGQLANAKNDPALKDITKTNHNVVWSAIMNNAFLSADKHLAQFMMSLSGTYVYDANGNPRYYPSLLTDNNNLVNVLLEGGKADIYQCRNTDPKACITITKPNNLSISQANGIQSQISKQLESILRHIATDQKLTDKQKSFLELTQTPVLKFFMDDLSANQTPDINSYSRMIAVELLNQYLTNMLSIASQSLANTNNSVEDIALITRDIDNAKRFTTGLADKAIETLNQRNQLIESQRKTAQRSQKDIGITTKPTQAYGNEGHHHHHH | not soluble
MSLDVPAMPERVETQGVEFVEFSTAPEEKANLEVLLATLGFEKSAQHRNRAVDLYTQGDIRIVINTSDDGDSFAGASYSIHGTNAYAFGLKVDDAQAALARAEALGAPTFAEPRNTGEVAVPAIQGVGNGVIYFLDASPALASIWDKEFVPTQGQKAMSDAGLTRVDHLAQTTHYDEMLTWLLFYTSLFSSRRTPMIDVVDPGGLVRSQAIESVPAANFRLTMNGADNRKTFAGKFLAEGFGSSIQHIAFATDDIFATAKAMQARGFHALPISRNYYDDLEARFGLEPEFSDALREASILYDRDDSGEYFQIYSRTFGEGFFFEVIERRGAYGGYGAMNAPFRIAAQRRLAEGHHHHHH | soluble
MSLDVTLTQPSIPDQSEDRRVRTSGSLAGHLPYGMADTLGKHEHLSTVDLVVPRFNASETEMLLGLFDGQALSSGGSKIAKYLHENFGHIFALELKALKTRLNETPVDALRRAFLALNKDLVTIAIQQSEERPIQTHRNSGQPIILTKEDLNSGGVATVVYLQSTELYVANVGDAQAMVIQTDGTHKMLTRKHDPAEPTERSRIREAGGWVSRNGRLNDLLQVSRAFGYVDLMPAVQAAPYVSNMTIREQDDIILIATGELWEYLSPGLVTDVARAERQDLMRAAQKLRDLAIAYGASGKIMVMMISVADEGHHHHHH | soluble
MSLEDNERVDHLIKEGYEIIQNDEVFSFSTDALLLGYLTEVRKNDKVMDLCSGNGVIPLLLAAKSTQPIEGIEIQEQLVSMARRSFKLNDLNDRLTMHHMDLKDVYQTFQPAQYTLVTCNPPYFKMNQNHQHQKEAHKIARHEIMCNLKDCIEAARHLLKEGGRFIMVHRAERLMDVLTELRHGKIEPKALTLVYSKHDKPAQTIVVEGRKGGNQGLDIRNPLYIYNEDGSYSDEMKGVYYGEGHHHHHH | soluble
MSLEIADLKVHFDIKEGKQWFWQPPKTLKAVDGVTLRLYEGETLGVVGESGCGKSTFARAIIGLVKATDGKVAWLGKDLLGMKADEWREVRSDIQMIFQDPLASLNPRMTIGEIIAEPLRTYHPKLSRQDVRDRVKAMMLKVGLLPNLINRYPHEFSGGQCQRIGIARALILEPKLIICDEPVSALDVSIQAQVVNLLQQLQREMGLSLIFIAHDLAVVKHISDRVLVMYLGHAVELGTYDEVYHNPLHPYTKALMLAVPIPDPDLERNKKIQLLEGELPSPINPPSEGHHHHHH | soluble
MSLEIHFEKVTSDNRKAVENLQVFAEQQAFIESMAENLKESDQFPEWESAGIYDGNQLIGYAMYGRWQDGRVWLDRFLIDQRFQGQGYGKAACRLLMLKLIEKYQTNKLYLSVYDTNSSAIRLYQQLGFVFNGELDTNGERVMEWTHQNKEGGSHHHHHH | soluble
MSLEIIPVIDLMNGLAVSGKSGNRKEYVPIKSVLCDSSDPHDVIKKYNENGAKKVYIADLNSIMGTGNNFEIVKSLDIFKIVDFGVTDKKDLENVKKCVNMTILGTETLNDISILKEGNIILSLDFKDGKLLNYDLDDILSKVDKKTPLIILDISSVGTQKGINVELIKDILKKTDNPIYIGGGIKSEDDLKISKELGISGVLIGTTIHNGKLDLKKIIQKYGEGHHHHHH | soluble
